{
  "source": "patent US20220396612A1",
  "about": "(UNIVERSIT DE TOURS, published 2022)",
  "binders": {"B1": {"name": "monoclonal antibody ‘18A2’ derived from hybridoma 18A2 (antibody, V domains shown)", "VH": "DVQLQESGPGLVKPSQSLSLTCSVTGYSITSGYYWNWIRQFPGNKLEWMGYISYDGSNNYNPSLKNRISITRDTSKNQFFLKLNSVTTEDTATYYCARWEGTTDYWGQGTTLTVSS", "VL": "not shown", "notes": "Mouse hybridoma antibody"}, "B2": {"name": "monoclonal antibody ‘F6’ secreted by clone BK6A2F6 (antibody)", "heavy": "EVQLQQSGPELVKPGASVKISCKASGYSFTGYFMNWVKQSHGKSLEWIGRINPYNGDTFYNQKFKGKATLTVDKSSSTAHMELLSLTSEDSAVYYCGSYYYGDYFDYWGQGTTLTVSSAKTTPPSVYPLAPGSAAQTNSMVTLGCLVKGYFPEPVTVTWNSGSLSSGVHTFPAVLQSDLYTLSSSVTVPSSTWPSETVTCNVAHPASSTKVDKKIVPRDCGCKPCICTVPEVSSVFIFPPKPKDVLTITLTPKVTCVVVDISKDDPEVQFSWFVDDVEVHTAQTQPREEQFNSTFRSVSELPIMHQDWLNGKEFKCRVNSAAFPAPIEKTISKTKGRPKAPQVYTIPPPKEQMAKDKVSLTCMITDFFPEDITVEWQWNGQPAENYKNTQPIMDTDGSYFVYSKLNVQKSNWEAGNTFTCSVLHEGLHNHHTEKSLSHSPGK", "light": "[…]"}, "B3": {"name": "monoclonal antibody ‘H6’ secreted by clone BK6A2H6 (antibody, V domains shown)", "VH": "EVQLQQSGPELVKPGASVKISCKASGYSFTGYFMNWVKQSHGKSLEWIGRINPYNGDTFYNQKFKGKATLTVDKSSSTAHMELLSLTSEDSAVYYCGSYYYGDYFDYWGQGTTLTVSS", "VL": "SIVMTQIPKFLLVSEGDRVTITCKASQSVSNDVAWYQQKSGQSPKLLIYYASNRYTGVPDRFTGSGYGTDFTFTISTVQAEDLAVYFCQQDYSSPLTFGAGTKLELKR"}},
  "key": {"[1]": {"target": "T1, virus-like particles (VLPs) of BK polyomavirus VP-1 protein, serotype Ia (BK virus (BKPyV), serotype Ia, UniProt P03088 1-361)", "T1 construct": "self-assembled native VLPs coated on ELISA plates; also called VLP Ia; BKV VP-1, serotype Ia", "T1 chain": "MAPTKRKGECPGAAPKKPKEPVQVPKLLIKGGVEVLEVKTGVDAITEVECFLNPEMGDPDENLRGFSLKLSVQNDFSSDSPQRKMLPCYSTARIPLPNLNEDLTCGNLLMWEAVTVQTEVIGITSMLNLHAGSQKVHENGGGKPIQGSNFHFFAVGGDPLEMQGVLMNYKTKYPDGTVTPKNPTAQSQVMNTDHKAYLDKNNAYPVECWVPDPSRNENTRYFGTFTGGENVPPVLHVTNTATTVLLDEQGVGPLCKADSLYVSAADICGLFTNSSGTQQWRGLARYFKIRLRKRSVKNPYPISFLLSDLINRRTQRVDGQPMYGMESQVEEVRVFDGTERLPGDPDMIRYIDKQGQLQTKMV", "assay": "ELISA on not denatured VLP (threshold OD>0.5)", "procedure": "(§1) The wells were then blocked for 1 hour at +37° C. with a PBS/SVF mixture. After dilution in a dilution buffer containing SVF, PBS and Tween® 20, the individual culture supernatants or purified antibodies were added for 1 hour at +37° C. The wells were washed four times in a row with Wash Buffer and a secondary anti-mouse peroxidase antibody was added to the 1/2000 dilution for 1 hour at +37° C. The wells were washed again four times in a row and the substrate was added for 30 minutes at room temperature. A stop solution was added and then each well was read by measuring the absorbance at 492 nm with a spectrophotometer. The value obtained for the average of the control wells (PBS in the first step) was subtracted from the optical density values obtained for each well (detection threshold: OD>0.5)."}, "[2]": {"target": "T2, virus-like particles (VLPs) of BK polyomavirus VP-1 protein, serotype Ib2 (BK virus (BKPyV), serotype Ib2, PA …, UniProt P03088 1-362)", "T2 construct": "native VLPs; also the immunogen; also called VLP Ib2; BK Ib2", "T2 chain": "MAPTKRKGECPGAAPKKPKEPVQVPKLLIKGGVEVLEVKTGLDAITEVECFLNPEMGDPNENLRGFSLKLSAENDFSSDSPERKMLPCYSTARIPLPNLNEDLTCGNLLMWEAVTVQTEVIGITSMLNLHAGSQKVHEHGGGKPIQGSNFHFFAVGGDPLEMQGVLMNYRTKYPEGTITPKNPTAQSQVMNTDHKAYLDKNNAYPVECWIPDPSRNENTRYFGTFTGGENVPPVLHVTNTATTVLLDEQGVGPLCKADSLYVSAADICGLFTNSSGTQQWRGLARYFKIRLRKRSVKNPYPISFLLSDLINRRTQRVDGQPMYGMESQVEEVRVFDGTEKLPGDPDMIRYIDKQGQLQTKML", "assay": "ELISA on not denatured VLP (threshold OD>0.5)", "procedure": "as §1"}, "[3]": {"target": "T3, virus-like particles (VLPs) of BK polyomavirus VP-1 protein, serotype II (BK virus (BKPyV), serotype II, UniProt P14996 1-362)", "T3 construct": "native VLPs; also called VLP II", "T3 chain": "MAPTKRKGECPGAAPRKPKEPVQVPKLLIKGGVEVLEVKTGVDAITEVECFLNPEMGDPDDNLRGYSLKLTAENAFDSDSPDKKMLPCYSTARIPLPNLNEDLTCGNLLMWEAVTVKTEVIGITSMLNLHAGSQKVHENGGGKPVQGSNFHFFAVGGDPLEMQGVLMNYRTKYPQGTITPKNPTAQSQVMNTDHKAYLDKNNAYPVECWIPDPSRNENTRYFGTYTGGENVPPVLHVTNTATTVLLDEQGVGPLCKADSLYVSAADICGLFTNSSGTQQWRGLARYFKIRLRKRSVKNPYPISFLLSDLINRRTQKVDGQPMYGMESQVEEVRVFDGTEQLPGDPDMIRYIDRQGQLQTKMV", "assay": "ELISA on not denatured VLP (threshold OD>0.5)", "procedure": "as §1"}, "[4]": {"target": "T4, virus-like particles (VLPs) of BK polyomavirus VP-1 protein, serotype IV (BK virus (BKPyV), serotype IV, UniProt P14996 1-362)", "T4 construct": "native VLPs; also called VLP IV", "T4 chain": "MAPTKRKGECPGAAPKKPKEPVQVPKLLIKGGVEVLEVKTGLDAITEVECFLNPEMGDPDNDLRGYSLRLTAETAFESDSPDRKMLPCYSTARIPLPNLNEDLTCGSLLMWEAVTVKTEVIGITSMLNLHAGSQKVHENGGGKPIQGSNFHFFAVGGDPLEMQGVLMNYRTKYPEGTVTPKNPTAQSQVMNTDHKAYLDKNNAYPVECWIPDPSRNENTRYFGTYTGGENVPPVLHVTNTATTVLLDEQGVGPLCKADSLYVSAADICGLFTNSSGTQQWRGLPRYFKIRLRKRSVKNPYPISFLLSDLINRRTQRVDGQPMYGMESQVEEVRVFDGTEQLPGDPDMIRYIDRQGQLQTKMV", "assay": "ELISA on not denatured VLP (threshold OD>0.5)", "procedure": "as §1"}, "[5]": {"target": "T5, denatured VLPs of BK polyomavirus VP-1 protein, serotype IV (BK virus (BKPyV), serotype IV, UniProt P14996 1-362)", "T5 construct": "also called IV denatured", "T5 chain": "T4 chain", "assay": "ELISA on denatured VLP (carbonate pH 10.6 + DTT; threshold OD>0.5)", "procedure": "as §1"}, "[6]": {"target": "T1, virus-like particles (VLPs) of BK …", "assay": "ELISA on coated VLP; supernatant 1/10", "procedure": "(§2) To do this, the VLPs produced were deposited at a concentration of 1 μg/mL in PBS and incubated overnight at +4° C. The wells were then blocked for 1 h at +37° C. with a PBS/FCS (phosphate-buffered saline/fetal calf serum) mixture. After dilution in a dilution buffer containing FCS, PBS and Tween® 20, the various hybridoma culture supernatants were added for 1 h at +37° C. The wells were washed four times in a row with Wash Buffer and a secondary anti-mouse antibody coupled to peroxidase was added to the 1:2000 dilution for 1 h at +37° C. The wells were washed four more times and the substrate (OPD (ortho phenylene diamine)+H₂O₂) was added for 30 min at room temperature. A stop solution (H₂SO₄ 4N) was then added and each well was read by measuring the absorbance at 492 nm with a spectrophotometer. The value obtained for the average of the control wells (PBS in the first step) is subtracted from the optical density values obtained for each well."}, "[7]": {"target": "T2, virus-like particles (VLPs) of BK …", "assay": "ELISA on coated VLP; supernatant 1/10", "procedure": "as §2"}, "[8]": {"target": "T3, virus-like particles (VLPs) of BK …", "assay": "ELISA on coated VLP; supernatant 1/10", "procedure": "as §2"}, "[9]": {"target": "T4, virus-like particles (VLPs) of BK …", "assay": "ELISA on coated VLP; supernatant 1/10", "procedure": "as §2"}, "[10]": {"target": "T1, virus-like particles (VLPs) of BK …", "assay": "ELISA on coated VLP; supernatant 1/5 120", "procedure": "as §2"}, "[11]": {"target": "T3, virus-like particles (VLPs) of BK …", "assay": "ELISA on coated VLP; supernatant 1/5 120", "procedure": "as §2"}, "[12]": {"target": "T4, virus-like particles (VLPs) of BK …", "assay": "ELISA on coated VLP; supernatant 1/5 120", "procedure": "as §2"}},
  "data": [
    {"binder": "B1", "values": [
      {"measurement": "OD 492 nm", "setting": "[1]", "result": 3.84, "unit": "OD"},
      {"measurement": "OD 492 nm", "setting": "[2]", "result": 0.565, "unit": "OD"},
      {"measurement": "OD 492 nm", "setting": "[3]", "result": 1.71, "unit": "OD"},
      {"measurement": "OD 492 nm", "setting": "[4]", "result": 2.99, "unit": "OD"},
      {"measurement": "OD 492 nm", "setting": "[5]", "result": 0.709, "unit": "OD"}
    ]},
    {"binder": "B2", "values": [
      {"measurement": "OD 492 nm", "setting": "[6]", "result": 3.08, "unit": "OD"},
      {"measurement": "OD 492 nm", "setting": "[7]", "result": 2.7, "unit": "OD"},
      {"measurement": "OD 492 nm", "setting": "[8]", "result": 3, "unit": "OD"},
      {"measurement": "OD 492 nm", "setting": "[9]", "result": 3.25, "unit": "OD"},
      {"measurement": "OD 492 nm", "setting": "[10]", "result": 0.57, "unit": "OD"},
      {"measurement": "OD 492 nm", "setting": "[11]", "result": 0.07, "unit": "OD"},
      {"measurement": "OD 492 nm", "setting": "[12]", "result": 0.77, "unit": "OD"},
      {"measurement": "OD 492 nm", "setting": "[1]", "result": 3.94, "unit": "OD"},
      {"measurement": "OD 492 nm", "setting": "[2]", "result": 2.7, "unit": "OD"},
      {"measurement": "OD 492 nm", "setting": "[3]", "result": 3, "unit": "OD"},
      {"measurement": "OD 492 nm", "setting": "[4]", "result": 0.788, "unit": "OD"}
    ]},
    {"binder": "B3", "values": [
      {"measurement": "OD 492 nm", "setting": "[6]", "result": 2.99, "unit": "OD"},
      {"measurement": "OD 492 nm", "setting": "[7]", "result": 1.71, "unit": "OD"},
      {"measurement": "OD 492 nm", "setting": "[8]", "result": 2.96, "unit": "OD"},
      {"measurement": "OD 492 nm", "setting": "[9]", "result": 3.29, "unit": "OD"},
      {"measurement": "OD 492 nm", "setting": "[10]", "result": 0.86, "unit": "OD"},
      {"measurement": "OD 492 nm", "setting": "[11]", "result": 0.05, "unit": "OD"},
      {"measurement": "OD 492 nm", "setting": "[12]", "result": 0.26, "unit": "OD"}
    ]}
  ]
}
